Experimental findings from patent publication US20150246945A1 (JAPANESE FOUNDATION FOR CANCER RESEARCH, published 2015) are described below.

Ends that are not written are not given here. * marks the point of attachment. Biotin = O=C1N[C@H]2[C@H](CS[C@H]2CCCCC(=O)*)N1

Test [1] has as its target T1, EpCAM, whole protein on cells (HT-29, MCF-7, 293T transfected with full-length EpCAM plasmid pkk196) or on … (UniProt P16422 24-314, limits assumed).
T1 construct: whole, on cells; Used for both cell-surface EpCAM and EpCAM carried on HT-29 exosomes; the assay field says which; also called EpCAM on HT-29; EpCAM-expressing cells
T1 sequence (looked up): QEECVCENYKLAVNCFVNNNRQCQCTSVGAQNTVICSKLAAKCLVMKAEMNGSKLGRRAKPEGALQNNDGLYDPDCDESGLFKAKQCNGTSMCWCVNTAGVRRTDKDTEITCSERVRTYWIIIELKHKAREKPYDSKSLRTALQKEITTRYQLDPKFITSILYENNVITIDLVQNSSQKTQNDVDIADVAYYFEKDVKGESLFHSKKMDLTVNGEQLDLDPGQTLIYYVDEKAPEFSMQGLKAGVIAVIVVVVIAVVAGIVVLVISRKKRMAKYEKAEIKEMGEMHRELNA
Briefly: staining of HT-29 spheroids with FITC peptide. As to the method:
(§1) The HT-29 cells as EpCAM-expressing cells were cultured by spheroid culture method as follows: 4×10⁵ cells are suspended in 3 ml of D-MEM/F-12 medium (Dulbecco's Modified n Eagle Medium:Nutrient Mixture 12, 1:1 mixture) (Gibco/Life Technologies Inc.) supplemented with 20 ng/ml human EGF (Miltenyi Biotec K.K.), 20 ng/ml human […] (Miltenyi Biotec K.K.), B-27 (Gibco/Life Technologies Inc.), penicillin, and streptomycin and inoculated to EZ-Sphere®, a Petri dish of 3.5 cm in diameter coated with MPC polymer. After static culture for 72 hours, the cells were collected while the medium was suspended by pipetting. The cells were stained with the FITC-modified peptide and observed under a fluorescence microscope. The staining was carried out by adding 4 μM peptide into a McCoy's 5A medium and standing still at room temperature for 30 minutes.
Next, the results of staining using the L3A variant peptide as a control are shown.

For test [2], the target named is T1, EpCAM, whole protein on cells (HT-29, …). Put plainly: staining of HT-29 spheroids with FITC peptide, fluorescence microscopy. On the procedure:
as §1
When these control peptides were used at a concentration of 4 μM, no EpCAM staining was observed (data not shown).

Test [3] shares this target. Briefly: pull-down of HT-29 exosomes on peptide-loaded streptavidin beads, Western blot with anti-EpCAM. On the procedure: 250 μg of streptavidin-magnetic beads (Dynabeads® M-280 streptavidin, VERITAS Corp.) in TBS containing 2% BSA was added to 20 μg of the biotinylated Ep114 peptide and shaken at room temperature for 30 minutes, followed by washing with TBS. Beads reacted without the peptide were used as a control. The anti-Ep114 antibody was added to the beads in TBST and reacted at room temperature for 1 hour. After washing with TBS, the beads were collected. The collected beads were heated at 95° C. for 5 minutes in a SDS sample buffer. After Western-blotting, the anti-Ep114 antibody was detected using HRP-labeled anti-rabbit antibodies.
The binding to exosomes was confirmed using the Western blot system in the similar method as in the preceding paragraph 1. Specifically, 20 μg of the biotinylated Ep114 peptide, the PE183 peptide, the PE184 peptide, or the PE185 peptide was bound to 250 μg of streptavidin-magnetic beads and then reacted with exosomes isolated from HT-29 cells as EpCAM-positive cells, followed by Western blot to detect the exosomes using anti-EpCAM polyclonal antibodies (see the left panel of FIG. 5C).
A general note: Immunoblotting shows a protein as a band on a membrane.

In test [4] the target is T2, purified EpCAM (extracellular domain with myc and His tags at the C terminus, expressed in HEK-293T cells) (UniProt P16422 24-265, limits assumed).
T2 construct: extracellular domain; also called epithelial cell adhesion molecule; CD326
T2 sequence (looked up): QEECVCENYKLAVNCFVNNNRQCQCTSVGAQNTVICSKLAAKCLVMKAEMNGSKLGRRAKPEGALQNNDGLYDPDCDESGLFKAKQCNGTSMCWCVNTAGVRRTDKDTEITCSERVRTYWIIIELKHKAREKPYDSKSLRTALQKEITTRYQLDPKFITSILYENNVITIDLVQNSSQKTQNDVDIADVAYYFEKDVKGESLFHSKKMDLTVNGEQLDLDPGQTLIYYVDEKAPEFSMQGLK
Briefly: pull-down of EpCAM on peptide-loaded streptavidin magnetic beads, Western blot.

Test [5] deals with T2, purified EpCAM (extracellular domain …). Briefly: ELISA, biotin peptide on streptavidin plate, purified EpCAM added. As to the method: was immobilized onto an ELISA plate via streptavidin, and purified EpCAM was added thereto in an amount of 0, 10, or 100 ng and reacted. After washing, bound EpCAM was detected using the anti-EpCAM antibody. A biotin-modified peptide PE194 (Ac-[…](biotin)-NH2) of the L3A variant (non-EpCAM-binding variant) was used as a control.
For orientation: ELISA stands for enzyme-linked immunosorbent assay.

The target is the same in test [6]. Put plainly: titer of phages bound to EpCAM-immobilized beads (TALON beads; Protein G beads with Vu-1D9), both conditions. On the procedure: (§2) Under Condition 1, each phage (in FIG. 1C, rows 1 and 2 represent the Ep133-displaying phage, rows 3 and 4 represent the Ep301-displaying phage, and rows 5 and 6 represent the phage 447 displaying no peptide) was added at a titer of 1×10¹⁰ to 0.4 mg of TALON® beads immobilized 1 μg of EpCAM (FIG. 1C, rows 1, 3, and 5,indicating with plus sign) or the beads alone (FIG. 1C, rows 2, 4, and 6, indicating with minus sign). After washing with TBST five times, the titers of bound phages were measured.
as §2, with “2, 2.4 μg of anti-EpCAM monoclonal antibody (Vu-1D9, Abcam plc.) was immobilized on Protein G beads, and 3 μg of purified EpCAM was immobilized thereon via the antibody. Each” for “1, each”, “the” for “0.4 mg of TALON®”, “immobilized” for “immobilized 1 μg of”, “5, indicating” for “5,indicating with”, “once,” for “five times,”

Test [7] has the same target. Put plainly: fluorescence depolarization, FITC-modified peptide. On the procedure: Each FITC-modified EpCAM peptide or control peptide was suspended at a concentration of approximately 100 μM in PBS. After centrifugation, the supernatant was collected and diluted 10-fold, and the absorbance was measured at 495 nm From the measurement value, the molar concentration of the peptide was determined using the formula of Beer-Lambert of the following expression 1: […]
EpCAM is diluted with PBS into several concentrations from 0 until reaching equilibrium (40 nM for the Ep133 peptide), and the FITC-modified peptide whose precise concentration has been measured by the aforementioned method is added to the dilutions thus prepared. The sample was left at a temperature for measurement for 30 minutes or longer and subjected to polarization measurement using a spectrofluorometer FP-6500 (JASCO Corp.) equipped with an automatic polarization measurement unit (JASCO Corp., APH-103). Kd was estimated by curve fitting according to the Hill equation.
The dissociation constants of the EpCAM-binding peptide Ep301 (FIG. 2(D)) disclosed in Patent Literature 2 and Ep301 control (FIG. 2(E)), which was a control peptide derived from Ep301 by the substitution of cysteine at positions 5 and 10 by serine, and a sequence of EpCAM from residue 106 to 119 (FIG. 2(F)) having partial homology to EpCAM-binding peptides were measured similarly.

B1: L3A variant peptide of Ep114, FITC-labeled (peptide)
peptide: KHAQCVRNICWS
modifications: not fully specified (bridges); cysteine pairing not given here; also: FITC-labeled, position not given here
notes: Free labeled peptide used as a control in cell staining; also called L3A control labeled peptide; control peptide
Take B1: in test [1], the binding result is “no binding”.
KHLQSVRNISWS (also: FITC-labeled, position not given here) [Ep114 control peptide in which cysteine at positions 5 and 10 is substituted by serine]: in test [2], the binding result was “no binding (tested: 0.4 µM; also 4 µM (data not shown))”.

B2: PE183 peptide (peptide)
peptide: Ac-KHLQCVRNICWSPPPPPPKK(Biotin)-NH2
modifications: not fully specified (bridges); printed as Ac-KHLQCVRNICWSPPPPPPKK(biotin)-NH2; cysteine pairing not given here
As to B2, the binding result in test [3] and in test [4] was “binds” in each case.
Turning to Ac-KHAQCVRNICWSPPPPPPKK(Biotin)-NH2 (cysteine pairing not given here, L3A control of PE183) [biotin-modified peptide PE194 of the L3A variant], in test [5], the binding result is on record as “no binding (tested: 100 ng EpCAM)”.

B3: Ep133-displaying phage (peptide)
chain: EHLHCLGSLCWP
modifications: not fully specified (bridges); cysteine pairing not given here; also: displayed on phage
notes: also called cloned phage displaying Ep133; not shown: fusion and linker not described
For B3, the “fold ability to bind compared with Ep301-displaying phage” value in test [6] was ≥ 10 times.

B4: Ep133 control (peptide)
peptide: EHLHSLGSLSWP
modifications: also: FITC-modified, position not given here
notes: Ep133 with cysteine at positions 5 and 10 substituted by serine
B4: the figures for the binding result in test [7] and in test [2] were “no binding” and “no binding (tested: 0.4 µM; also 4 µM (data not shown))”, respectively.
